Test results published in the supplement of paper PMC12764529.
± gives the half width of the 95% confidence interval.

Test: folding stability dG unfold from chymotrypsin proteolysis; higher = more stable
Summary of the method: (§1)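 Digests were run with trypsin and chymotrypsin at 11 concentrations in threefold dilutions, plus a no-protease condition, on designed mini-proteins in a PA-tagged cDNA display construct. The mini-proteins were under 80 residues, had no cysteine, and were kept only when AlphaFold2 dimer inter-PAE was above 15. After sequencing, Bayesian fitting of the counts gave K50, from which unfolding free energy was derived against a sequence-predicted unfolded-state K50 and a shared folded-state K50, per protease or combined.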

Point of comparison: “SAGGAKIKFDIEPTNNTIRVKIEIWLPGGPVEIVEEEPVRVDPNGGIWISFRIRYPDGKPQEFQIPISAGGS [r8_449_TrROS]”, “folding stability dG unfold” value 3.08 ± 0.07 kcal/mol. Against it:
- SAGMTTTLTKGEDGVTLTFDLPGQSVTLTVPVPPDVEVTTSFPATGTTITGTPVGDTLTITVTVPAPASAGG [r19_384_JUSTAS] — lower, 1.52 ± 0.041 kcal/mol
- SSEILEKLAKELPDLEPVGVEEEPLPDGGRRLTLVARRPETGTYVRVTVDVPPGGGVASVEVEEVPVSRLSA [r9_274_JUSTAS] — lower, 2.23 ± 0.033 kcal/mol
- SVPYGVTDVTFEPEKNTATVTAPRPDPSAPVAVGDKKGESVSVTSEVDTAAGTLTVTVPTTAPGNVTVDVPS [r1_138_JUSTAS] — lower, -0.934 ± 0.54 kcal/mol
- SAGGKKKKVVIKLPSTNKAVEAELVSVKKGKNKYYLEIKLPNGKKYKFPLEVIGDFKWDEGEGTLEVPSAGG [r13_211_TrMRF] — within error, 2.98 ± 0.05 kcal/mol
- SAGGSAGGSAGGGVVTLPDLKGLSEEELKALAEEIAKKLGLENVPLKLEFGEDGNLTLVLSAGGSAGGSAGG [r7_810_JUSTAS] — lower, 1.24 ± 0.054 kcal/mol
- SAMKTIEIEIELDELKNLTPEELEEKAKELAEELAKKLAEEKGLEVVSVKVEVVEKDGKLVVKVTVEVKSAG [r14_310_TrROS_Hall] — within error, 2.83 ± 0.26 kcal/mol
- SAGGSAGGSMTVTVRRVYFPPNLAEGMTVEELRKKLGVPDLPVLVVDVEVTLTPEELEALLKESAGGSAGGS [r12_178_TrMRF] — lower, 2.21 ± 0.036 kcal/mol
- SAGGEISPEDIKELEIYPIPPEDAQKNGYIMIEIKGPGGKPIAQIMIPVRVPKVKDKDGKPMDLEDMNSAGG [r13_864_TrROS] — lower, 1.6 ± 0.07 kcal/mol
- SAGGSAEITEIEIEEEGGRLRVRATVTNENGETFEFEAEIELPPPPPPEEVTLERDPETDEWKEVTSAGGSA [r15_335_TrROS_Hall] — lower, 2.39 ± 0.087 kcal/mol
- SAGGSAGGSAGGIGPEIVEAALIEAKEKVPEDEEVEILVRDPVTGEVLRLRIYPDRVELGSAGGSAGGSAGG [r7_44_TrMRF] — lower, 0.785 ± 0.14 kcal/mol
- SAGGSAGGMVIEGRIKIVSPDGGEKEIPVVLFIPESFPDANLEELAEAIAKEILPPGYKADFEGSAGGSAGG [r6_821_TrMRF] — lower, 1 ± 0.023 kcal/mol
- SAGGSAGGSAPPLDRVFVEVRVEPGEDAGVVVTHPDGRVLTAPADADVVFEFHPDVPVLVADASAGGSAGGS [r12_553_TrMRF] — lower, 0.129 ± 0.12 kcal/mol
- SIEEIADTLQKLGLNVNIDDIELEPNPDGRFRIQVQVSGEPIRQVEVPPPPPPPPEEEVRDPDGKEHKVRSA [r9_442_TrROS] — lower, -0.281 ± 0.26 kcal/mol
- SAGGKNDVKTKTYEIEKDGGKITIEFEKLPDGKYKATVTYPDGKKETLVFDLGEGKEEEFAKEIAKKKSAGG [r13_296_TrMRF] — within error, 3.05 ± 0.067 kcal/mol
- SAGGSAGGSAGGEKVTLTLELPAEEIEELAKALAPPGAKVKITKISYDKENKKVTIEIESAGGSAGGSAGGS [r10_1030_TrROS_Hall] — lower, 1.4 ± 0.026 kcal/mol
- SAGGKPKIRIKIEIYTPEKKETIELEFDSVEEALEALASLPGVKVEKLPDGTIYIKIPNLIIKIEIEPSAGG [r13_143_TrROS_Hall] — higher, 3.57 ± 0.1 kcal/mol
- SAGGEKKPVKVKIEVESFKLPNVLVLKAKVYLPATGKWYEAIVIEGPTKTLVVIKFPDGSSLVLELNSAGGS [r16_657_TrMRF] — higher, 4.12 ± 0.12 kcal/mol
- SAGGSIRIYANNVEITDIEIGDDGYIEIKVRMRGPNGQPQEFTLMIRVVPPPPPPKVDPNDPDAKDSAGGSA [r2_368_TrROS] — higher, 3.5 ± 0.29 kcal/mol
- MTPEERIEEIEAKARELLRELGLPPEVRLTVEAEVRPRPDGRLELRVRVTVEFPGPPGAIPPELLEALAEES [r1_98_TrMRF] — lower, 2.38 ± 0.086 kcal/mol
- SAGGKKEVILVIEIDLPESEEELLEEAERLAKELAELLGKEREVEVEVIEKDGKLIIVLRINGKEIVLSAGG [r13_845_TrROS_Hall] — lower, 2.68 ± 0.051 kcal/mol
- SAGGSAGGSAGGKSYTDPNSNTVTTLDEGPGFGKVTTTTYKPEEPVPLETTESIIGPVLSSAGGSAGGSAGG [r7_343_JUSTAS] — lower, -0.026 ± 0.11 kcal/mol
- SAGGSAGGSLMIPIPPGKPINIKFEIKNDDGHPMRITETYPVKNGYYVIRVENPNGNEQIIPFSAGGSAGGS [r12_31_TrROS] — lower, -0.271 ± 0.2 kcal/mol
- SAGGSAGGSAGGLEKLVELLAPGKPLEVLRIDPTPTYVRIVVRHPDYPVDTVILADPDVISAGGSAGGSAGG [r7_303_TrMRF] — lower, -0.617 ± 0.11 kcal/mol
- SAGGSAGGSAGKPKTLEVEMLVLDPETRRLYRVRMEIVLDPEDEGKLTIRLEIEELELPDSAGGSAGGSAGG [r17_241_TrROS_Hall] — higher, 4.5 ± 0.096 kcal/mol
- SAGGSAGGSAGSNKVVTFVPRDPATGAPLGERPIPINSSSGSEIESIKKELPPEVVEIVESAGGSAGGSAGG [r17_339_JUSTAS] — lower, 1.15 ± 0.02 kcal/mol
- SAMTLTLEIELDGVRVRLEAELELVLNEDGSLELKLKLKIEVEPLPPPKEVEVEEEEEEVEEVEFLPEESAG [r14_341_TrROS_Hall] — higher, 4.61 ± 0.28 kcal/mol
- SAGGSAGGSATITITVDGKTITLEVPEDSEVEIVFDEKTGKLFIKDKKTNKVYEVSLEELLSAGGSAGGSAG [r3_137_TrROS_Hall] — higher, 3.98 ± 0.15 kcal/mol
- SAGGKKVFTLDELKKLAEELNIEKIEVKEDEEGIYTFTFTDLAKKTGKEVTIKIVRNKNGELLVEIEPSAGG [r13_163_TrROS_Hall] — lower, 2.9 ± 0.087 kcal/mol
- SNEPPVIEIKFRIDEVQPMNGQPMIMFEITEIEDAPPEIQDLLKNGYYIMIHMPPGEPLKEGEEFEIHIFSA [r9_557_TrROS] — lower, 2.75 ± 0.12 kcal/mol
- SAGGMTITVTVGPGKEEEAVEALKKKTGLKVELVETTPRPVRAPDGTVLEEVEEITIKITKPDPNLKESAGG [r13_943_JUSTAS] — lower, -0.269 ± 0.2 kcal/mol
- SAGGSAELPSLGAEITVTEDPNRNTYTVTVPLVAPDGAPVGTLTVPFSSLEEARAFLRAQGLGELLSAGGSA [r15_127_JUSTAS] — lower, 2.836 ± 0.01 kcal/mol
- SAGGSAGGSAGGPSPSTPVTVTVTFPETGETVTLEVTDLEELRERFPDRPVEITVSPGGSAGGSAGGSAGGS [r10_1004_JUSTAS] — lower, 2.11 ± 0.041 kcal/mol
- SAGNYYRVEVENPSEGKKVTIHIFPNGMINVEHDGGEHWIMIPPDNPDQIEEIASELAPNGYEVDIEPWSAG [r5_791_TrROS] — lower, 0.856 ± 0.27 kcal/mol
- SMIVRVEGDKTTITLTLTTTTTLTDPTNPSLTTTVSKTVPRTLTLDPNDPAALAALIAALPPGAVPTIVGSA [r9_476_JUSTAS] — lower, 1.75 ± 0.091 kcal/mol
- SAGYIIGYPIIEELFNAGKPEEIRKILKEAVEKDPDKIIIIEVPENPEIAKAIEEAFKEEGIPLIIIPESAG [r14_236_TrMRF] — lower, 0.81 ± 0.1 kcal/mol
- SAGGSAGGSAGSSSISRETFDPETGLRYVYDPETDTITVIDLSNNKVVKTTPVGPEELERSAGGSAGGSAGG [r17_271_JUSTAS] — lower, 1.95 ± 0.022 kcal/mol
- SAGGSAGGSAGSMTVTVTGGGVSVEVYPETGLVRVRSPSGSETLVDIATGEVVRREPAAASAGGSAGGSAGG [r11_149_JUSTAS] — lower, 0.872 ± 0.029 kcal/mol
- SMITIPYNIQTDPSQAEKLAEEIAKEVEEKYGLKVVGVELVEWVPAPDGSESSVKVEIKIEAPDPKNILLSA [r9_302_JUSTAS] — lower, 0.713 ± 0.089 kcal/mol
- SAGDVPVPATFEVELPGDGTARVTVVRHPGAAPGGFDTVRVEFRPGPTSSVTLTYRVPPGSAPVPFLGGSAG [r5_47_TrMRF] — lower, 1.33 ± 0.31 kcal/mol
- SAGGSAGGSAGGEAFEVERVELVLDPETGTPYLLVYFRDGRVLVYDLPRGTWRVVPAEELSAGGSAGGSAGG [r11_922_TrMRF] — within error, 3.06 ± 0.076 kcal/mol
- SAGGSAGGSDVSEEELRAIAEEIAAELGLSDITVEVEKLPTAVVRITITNPATGETIEIEVPESAGGSAGGS [r12_1000_JUSTAS] — lower, 1.77 ± 0.061 kcal/mol

Test: folding stability dG unfold from trypsin proteolysis; higher = more stable
Summary of the method: as §1

Point of comparison: “SAMKTIEIEIELDELKNLTPEELEEKAKELAEELAKKLAEEKGLEVVSVKVEVVEKDGKLVVKVTVEVKSAG [r14_310_TrROS_Hall]”, “folding stability dG unfold” value 3.59 ± 0.24 kcal/mol. Against it:
- SAGMTTTLTKGEDGVTLTFDLPGQSVTLTVPVPPDVEVTTSFPATGTTITGTPVGDTLTITVTVPAPASAGG [r19_384_JUSTAS] — lower, 1.78 ± 0.028 kcal/mol
- SSEILEKLAKELPDLEPVGVEEEPLPDGGRRLTLVARRPETGTYVRVTVDVPPGGGVASVEVEEVPVSRLSA [r9_274_JUSTAS] — lower, 0.529 ± 0.054 kcal/mol
- SVPYGVTDVTFEPEKNTATVTAPRPDPSAPVAVGDKKGESVSVTSEVDTAAGTLTVTVPTTAPGNVTVDVPS [r1_138_JUSTAS] — lower, 0.57 ± 0.041 kcal/mol
- SAGGKKKKVVIKLPSTNKAVEAELVSVKKGKNKYYLEIKLPNGKKYKFPLEVIGDFKWDEGEGTLEVPSAGG [r13_211_TrMRF] — lower, 1.79 ± 0.047 kcal/mol
- SAGGSAGGSAGGGVVTLPDLKGLSEEELKALAEEIAKKLGLENVPLKLEFGEDGNLTLVLSAGGSAGGSAGG [r7_810_JUSTAS] — lower, 2.15 ± 0.077 kcal/mol
- SAGGSAGGSMTVTVRRVYFPPNLAEGMTVEELRKKLGVPDLPVLVVDVEVTLTPEELEALLKESAGGSAGGS [r12_178_TrMRF] — lower, 1.39 ± 0.041 kcal/mol
- SAGGEISPEDIKELEIYPIPPEDAQKNGYIMIEIKGPGGKPIAQIMIPVRVPKVKDKDGKPMDLEDMNSAGG [r13_864_TrROS] — lower, 1.13 ± 0.044 kcal/mol
- SAGGSAEITEIEIEEEGGRLRVRATVTNENGETFEFEAEIELPPPPPPEEVTLERDPETDEWKEVTSAGGSA [r15_335_TrROS_Hall] — lower, 2.17 ± 0.06 kcal/mol
- SAGGSAGGSAGGIGPEIVEAALIEAKEKVPEDEEVEILVRDPVTGEVLRLRIYPDRVELGSAGGSAGGSAGG [r7_44_TrMRF] — lower, 0.384 ± 0.11 kcal/mol
- SAGGSAGGMVIEGRIKIVSPDGGEKEIPVVLFIPESFPDANLEELAEAIAKEILPPGYKADFEGSAGGSAGG [r6_821_TrMRF] — lower, 0.601 ± 0.065 kcal/mol
- SAGGSAGGSAPPLDRVFVEVRVEPGEDAGVVVTHPDGRVLTAPADADVVFEFHPDVPVLVADASAGGSAGGS [r12_553_TrMRF] — lower, -1.27 ± 0.49 kcal/mol
- SIEEIADTLQKLGLNVNIDDIELEPNPDGRFRIQVQVSGEPIRQVEVPPPPPPPPEEEVRDPDGKEHKVRSA [r9_442_TrROS] — lower, -0.188 ± 0.086 kcal/mol
- SAGGKNDVKTKTYEIEKDGGKITIEFEKLPDGKYKATVTYPDGKKETLVFDLGEGKEEEFAKEIAKKKSAGG [r13_296_TrMRF] — lower, 1.46 ± 0.12 kcal/mol
- SAGGSAGGSAGGEKVTLTLELPAEEIEELAKALAPPGAKVKITKISYDKENKKVTIEIESAGGSAGGSAGGS [r10_1030_TrROS_Hall] — lower, 0.937 ± 0.061 kcal/mol
- SAGGKPKIRIKIEIYTPEKKETIELEFDSVEEALEALASLPGVKVEKLPDGTIYIKIPNLIIKIEIEPSAGG [r13_143_TrROS_Hall] — within error, 3.19 ± 0.2 kcal/mol
- SAGGEKKPVKVKIEVESFKLPNVLVLKAKVYLPATGKWYEAIVIEGPTKTLVVIKFPDGSSLVLELNSAGGS [r16_657_TrMRF] — lower, 2.97 ± 0.17 kcal/mol
- SAGGSIRIYANNVEITDIEIGDDGYIEIKVRMRGPNGQPQEFTLMIRVVPPPPPPKVDPNDPDAKDSAGGSA [r2_368_TrROS] — lower, 2.51 ± 0.1 kcal/mol
- MTPEERIEEIEAKARELLRELGLPPEVRLTVEAEVRPRPDGRLELRVRVTVEFPGPPGAIPPELLEALAEES [r1_98_TrMRF] — lower, 2.7 ± 0.081 kcal/mol
- SAGGKKEVILVIEIDLPESEEELLEEAERLAKELAELLGKEREVEVEVIEKDGKLIIVLRINGKEIVLSAGG [r13_845_TrROS_Hall] — lower, 2.78 ± 0.23 kcal/mol
- SAGGSAGGSAGGKSYTDPNSNTVTTLDEGPGFGKVTTTTYKPEEPVPLETTESIIGPVLSSAGGSAGGSAGG [r7_343_JUSTAS] — lower, 0.367 ± 0.04 kcal/mol
